According to US20230106715A1 (BIOSION, published 2023):
Residue numbers refer to the chain shown, from its start.

T1: human Siglec15 on human-siglec15-2D3-1E1 cells (human, UniProt Q6ZMC9 20-328)
T1 construct: whole, on cells; Transfected HEK-293 cells; also called cell surface human Siglec15
T1 sequence (looked up): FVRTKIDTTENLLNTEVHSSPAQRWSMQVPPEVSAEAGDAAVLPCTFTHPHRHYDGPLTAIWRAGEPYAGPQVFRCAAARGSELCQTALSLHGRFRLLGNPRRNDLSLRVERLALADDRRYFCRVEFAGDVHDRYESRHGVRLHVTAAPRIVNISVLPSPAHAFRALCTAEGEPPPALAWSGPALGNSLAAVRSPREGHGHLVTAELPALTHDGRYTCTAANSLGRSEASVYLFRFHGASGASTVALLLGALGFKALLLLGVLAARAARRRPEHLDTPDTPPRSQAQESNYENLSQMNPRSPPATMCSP

T2: mouse Siglec15-his protein (mouse)
T2 construct: In house made
T2 chain: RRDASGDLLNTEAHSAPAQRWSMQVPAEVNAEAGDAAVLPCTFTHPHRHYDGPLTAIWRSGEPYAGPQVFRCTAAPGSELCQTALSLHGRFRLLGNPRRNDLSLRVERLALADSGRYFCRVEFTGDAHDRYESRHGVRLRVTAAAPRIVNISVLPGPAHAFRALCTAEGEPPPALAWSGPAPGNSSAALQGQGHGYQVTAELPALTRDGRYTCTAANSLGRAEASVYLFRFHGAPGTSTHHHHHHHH

B1: anti-Siglec15 benchmark (ch5G12) (antibody, human IgG1, kappa, V domains shown)
VH: QVQLQQPGAELVKPGASVKMSCKASGYTFTSYWITWVIQRPGQGLEWIGDIYCGSDTMHYNEKFKNKATLTVDTSSSTAYMQLSSLTSEDSAVYYCARWWDYGSSYDYFDYWGQGTTLTVSS
VL: DIKMTQSPSSMYASLGERVTITCKASQDINSYLSWFQQKPGKSPKTLIYRANRLVDGVPSRFSGSGSGQDYSLTISSLEYEDMGIYYCLQYDEFPYTFGGGTKLEIKR
notes: ch5G12 (US 20190202912A1); also called BM; Siglec15-ch5G9
B2: B2D7H7A3C1 (antibody, V domains shown)
VH: QVQLQQSGAELVRPGTSVQMSCKAAGYTFTNYWIGWVKQRPGHGLEWVGDIHPGINYTNNNEKFRGKATLTADTSSNTAYMQLRGLTSDDSAIYYCARVDYDYDGSYIMDYWGQGTSVTVSS
VL: QIVLSQSPALLSASPGEKVTMTCRASSSVSYMYWYQQKPGSSPKPWIYATSNLTSGVPARFSGSGSGTSYSLTISRVEAEDAATYFCQQWNSKPWTFGGGSKLEIR
notes: Mouse monoclonal antibody from hybridoma; also called mouse B2D7H7A3C1
B3: B2H2H1H7 (antibody, V domains shown)
VH: B2 VH with N77S
VL: B2 VL with V3I, K102R
notes: Mouse monoclonal antibody from hybridoma; also called mouse B2H2H1H7; B2H2H1A7
B4: B2G12H3E8 (antibody, V domains shown)
VH: B2 VH with Q5K, A25V, N77S
VL: B2 VL
notes: Mouse monoclonal antibody from hybridoma; also called mouse B2G12H3E8
B5: A2A5C7E8 (antibody, V domains shown)
VH: EVQLVQSGAEVKKPGESLRISCKGSGYSFTTYWISWVRQMPGKGLEWMGLIDPSDSYTNYSPSFQGHVTISTDKSISTAYLQWSSLKASDTAMYYCARGGYYGSEEDYWGQGTLVTVSS
VL: EIVLTQSPGTLSLSPGERATLSCRASQSVSSSRLAWFQQKSGQAPRLLIFDASSRATGIPDRFSGSGSGTDFTLTISRLEPEDFAVYYCQQYGSSPRTFGQGTKVEFK
notes: Fully human antibody from transgenic mouse hybridoma; also called A2A5C7E8-1
B6: A2A5C7E8-2 (antibody, human IgG1, kappa, V domains shown)
VH: B5 VH with D55E
VL: EIVLTQSPGTLSLSPGERATLSCRASQSVSSSRLAWFQQKSGQAPRLLIFDASSRATGIPDRFSGSGSGTDFTLTISRLEPEDFAVYYCQQYGSSPRTFGQGTKVEFKR
notes: Variant of A2A5C7E8 modified in VH CDR2 (X1 = E)
B7: A2A5C7E8-3 (antibody, human IgG1, kappa, V domains shown)
VH: B5 VH with Q65K
VL: B6 VL
notes: Variant of A2A5C7E8 modified in VH CDR2 (X2 = K)

Target: T1, human Siglec15 on …
Experiment: cell based binding FACS on human-siglec15-2D3-1E1 cells
Protocol: The binding activities of the anti-Siglec15 antibodies to cell surface Siglec15 were tested by flow cytometry (FACS), using in-house prepared human-siglec15-2D3-1E1 cells expressing human Siglec15 (amino acid residues Met1-Pro328 of uniprot #Q6ZMC9) on cell membranes. The human-siglec15-2D3-1E1 cells were prepared by transfecting HEK-293 cells (ATCC #CRL-1573) with pCMV-T-P plasmids inserted with human Siglec15 coding sequence between EcoRI and XbaI sites, following the instruction of lipofectamine 3000 transfection reagent (Thermo Fisher). The human-siglec15-2D3-1E1 cells were harvested from cell culture flasks, washed twice and re-suspended in phosphate buffered saline (PBS) containing 2% v/v Fetal Bovine Serum (FACS buffer). 2×10⁵ cells per well in 96 well-plates were incubated in 100 μL serially diluted anti-Siglec15 antibodies or controls (starting at 66.67 nM, 5-fold serial dilution) in FACS buffer for 40 minutes on ice. […] Following a 40-minute incubation at 4° C. in dark, cells were washed three times and re-suspended in FACS buffer. Fluorescence was measured using a Becton Dickinson FACS Canto II-HTS equipment. Data was analyzed using Graphpad Prism software and EC₅₀ values were reported.

Row | EC50 [nM] | Binder
1 | 11.6 | B1
2 | 0.998 | B2
3 | 1.91 | B3
4 | 1.17 | B4

Target: T2, mouse Siglec15-his protein
Experiment: indirect ELISA on coated mouse Siglec15-his

Row | EC50 [nM] | Binder
5 | 0.211 | B1
6 | 0.994 | B2
7 | 0.651 | B3
8 | 0.408 | B4

Target: T2, mouse Siglec15-his protein
Experiment: SPR Biacore T200, antibody captured by anti-human IgG, antigen as analyte, 1:1 fit
Protocol: Briefly, goat anti-human IgG (GE healthcare, Cat #BR100839, Human Antibody Capture Kit) was covalently linked to a CM5 chip (carboxy methyl dextran coated chip, GE healthcare, Cat #BR-1005-30) via primary amines, using a standard amine coupling kit provided by Biacore (GE healthcare, Pittsburgh, Pa., USA). Un-reacted moieties on the biosensor surface were blocked with ethanolamine. Then, purified anti-Siglec15 antibodies of the disclosure at the concentration of 13.3 nM and an anti-Siglec15 benchmark (ch5G12, also referred to as BM, see U.S. Patent Publication No. 20190202912A1, amino acid sequences of the heavy chain and light chain set forth in SEQ ID NOs: 24 and 25, respectively) at 13.3 nM, were respectively flowed onto the chip at a flow rate of 10 μL/min. Then, serially diluted recombinant human Siglec15-his protein (in house made, amino acid sequence set forth in SEQ ID NO: 20) or cynomolgus monkey Siglec15-his protein (in house made, amino acid sequence set forth in SEQ ID NO: 21), 2-fold serial dilution in HBS-EP⁺ buffer starting at 80 nM, were respectively flown onto the chip at a flow rate of 30 μL/min. The antigen-antibody association kinetics was followed for 2 minutes and the dissociation kinetics was followed for 10 minutes. The association and dissociation curves were fit to a 1:1 Langmuir binding model using BIAcore evaluation software.
For the BIAcore test measuring the binding affinities of the modified A2A5C7E8 variants to mouse Siglec 15, mouse Siglec15-his protein (in house made with SEQ ID NO: 22) was used.

Row | Kd [nM] | koff [s⁻¹] | kon [M⁻¹ s⁻¹] | Binder
9 | 0.17 | 0.000931 | 5.47e+06 | B1
10 | 0.0875 | 0.000187 | 2.14e+06 | B5
11 | 0.188 | 0.000495 | 2.63e+06 | B6
12 | 0.0737 | 0.000165 | 2.24e+06 | B7

Target: T3, human Siglec15-Fc protein (human)
T3 construct: In house made; also called recombinant human Siglec15 protein with human IgG1 Fc at the C-terminus
T3 sequence (chain, as listed by the source limits assumed): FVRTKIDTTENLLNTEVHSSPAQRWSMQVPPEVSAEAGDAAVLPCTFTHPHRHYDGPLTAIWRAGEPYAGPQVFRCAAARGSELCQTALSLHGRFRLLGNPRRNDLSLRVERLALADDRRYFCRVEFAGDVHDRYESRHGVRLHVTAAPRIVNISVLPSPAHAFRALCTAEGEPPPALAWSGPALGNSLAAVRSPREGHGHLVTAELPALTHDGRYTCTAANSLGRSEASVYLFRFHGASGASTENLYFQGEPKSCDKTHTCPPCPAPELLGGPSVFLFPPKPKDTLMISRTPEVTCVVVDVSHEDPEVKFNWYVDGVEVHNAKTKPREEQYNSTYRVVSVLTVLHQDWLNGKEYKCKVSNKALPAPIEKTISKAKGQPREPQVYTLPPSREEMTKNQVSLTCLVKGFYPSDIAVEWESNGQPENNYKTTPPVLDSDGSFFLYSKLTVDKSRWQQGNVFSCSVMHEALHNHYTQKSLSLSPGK
Experiment: competitive ELISA: biotin-labeled human Siglec15-Fc in solution, competitor coated benchmark
Protocol: The abilities of the anti-Siglec15 antibodies of the disclosure to block benchmark-human Siglec15 binding were measured in a competitive ELISA assay. Briefly, the benchmark was coated on 96-well micro plates at 2 μg/mL in PBS, 100 μl per well, and incubated for 2 hours at 37° C. Then plates were washed once with wash buffer, and blocked with 5% w/v non-fatty milk in PBST overnight at 4° C. The next day, the anti-Siglec15 antibodies of the disclosure or controls were diluted with biotin labeled human Siglec15-Fc protein (prepared in-house with SEQ ID NO: 19, 37 ng/ml in PBST with 2.5% w/v non-fatty milk), starting at 80 nM with a 4-fold serial dilution, and incubated at room temperature for 40 minutes. After plate washing 4 times, the antibody/Siglec15-Fc mixtures were added to benchmark coated plates, 100 μl per well. After incubation at 37° C. for 40 minutes, plates were washed 4 times again using wash buffer. Then the plates were added and incubated with 100 μl/well streptavidin conjugated HRP for 40 minutes at 37° C. Plates were washed again using wash buffer. Finally, TMB was added and the reaction was stopped using 1M H₂SO₄, and the absorbance of each well was read on a microplate reader using dual wavelength mode with 450 nm for TMB and 630 nm as the reference wavelength, then the OD (450-630) values were plotted against antibody concentration. Data was analyzed using Graphpad Prism software and IC₅₀ values were reported.

Row | IC50 [nM] | Binder
13 | 0.229 | B1
14 | 0.0387 | B5
15 | 0.0178 | B6
16 | 0.0357 | B7
